Results from patent US12173057B2, “Antibodies and therapeutic uses thereof” (Ibex Biosciences, Inc., priority 2018, dated 2024).
“Also recorded” adds a separate entry of the source.

Tests used:
[1] = system: MDA-MB-231 cells; test: ORIS cell migration (motility) assay; type: cell-based, human
Method: Cell motility assays utilized the Platypus Technologies ORIS™ cell migration assay platform, which is generally described at platypustech.com/discoverAssay.html.
Specifically, the filamin-A antibodies of the present disclosure were evaluated in the ORIS™ cell migration assay, which used tri-coated 96 well plates (Platypus #CMATR1.101). Cells were seeded at approximately 50,000 cells/well. Cells were incubated overnight at 37° C. without CO2 in DMEM, in the case of HEK-293 cells, or L-15 containing 10% FBS, in the case of MDA-MB-231 cells. Stoppers covering cell growth chambers were removed with the ORIS™ stopper tool, growth media was removed, and wells were gently washed with 100 microliters of sterile PBS. Stoppers were left in place in reference wells until the staining step to serve as pre-migration controls. After washing, a 100 microliter volume of fresh culture media containing the specific treatment was added to each well. The cells were then allowed to incubate overnight. At the end of the incubation period, cells were fluorescently stained with Calcein AM for 30 minutes. Fluorescence was then measured using a microplate reader with a Detection Mask in place.
FIGS. 1 and 2 depict the relative fluorescence units (RFUs) present in the detection zones for each condition (mean+/−S.D., n=2 wells/condition).
Wells containing the cells existed in three formats: coated with collagen, coated with fibronectin, or a tissue culture (TC) treatment.
Well treatments were as follows: no antibody control, mouse antibody (mAb FLNA 1 mcg/ml), mouse antibody (mAb FLNA 20 mcg/ml), human chimeric antibody (hAb FLNA 1 mcg/ml), human chimeric antibody (hAb FLNA 20 mcg/ml), apicdin (100 nM), cytochalasin B (30 micromolar); see FIG. 1. An increase in the number of RFUs correlates with an increase in cellular motility.

[2] = system: filamin-A; test: Immunofluorescence assays with MDA-MB-231 breast cancer cell line; type: cell-based, human
Method: Characterization of the filamin-A mAbs was performed using immunofluorescence assays with the MDA-MB-231 breast cancer cell line. […] For comparison, the AHO1402 mAb and another commercially available mAb, TI10 (Millipore MAB1680-C), were assayed at the same time.
The primary antibodies utilized in the immunofluorescence assays were as follows: • Anti-Filamin-A, clone TI10 (Millipore, p/n MAB1680-C) • Anti-Filamin-A, clone 209 #13 (Life Technologies, p/n AHO1402) • Anti-Filamin-A, mouse mAb • Anti-Filamin-A, human chimeric mAb • Anti-beta Actin, rabbit polyclonal (Rockland, p/n 600-401-886S)
Two primary methods of Immunofluorescence staining were utilized. The first method comprises single staining or double staining with methanol as a fixative and 0.2% Triton as a permeabilization agent, which is described in Alper et al. 2009. The second method utilizes a double staining technique with 2% paraformaldehyde as a fixative and 0.2% triton as a permeabilization agent.
Primary antibodies were incubated with the fixed and permeabilized cells for 1 hour at room temperature at a concentration of 1.25 mcg/ml. After one or more wash steps, secondary antibodies were incubated with the cells for 1 hour at room temperature. […]

[3] = system: HEK293A (human embryonic kidney cell line); test: CellCountzEZ Cell Survival Assay; type: cell-based; conditions: for ratio of inhibition: dose not restated in b354 (10 μg)
Method: (§1) A study was conducted to assess cell survival following incubation with antibody B411. DU145 (human prostate cancer cell line) and HEK293A (human embryonic kidney cell line) cells were seeded on 96-well plates (10^4 cells/well) and incubated for 4 hours at 37° C. 1 μg or 10 μg B411 (endotoxin removed, 1.2 EU/mL) was added to the wells and incubated for 24 or 48 hours. An untreated group for both cell types was also included. Cell survival was detected using CellCountzEZ™ Cell Survival Assay kit and results were determined by reading OD412 with a reference to OD650.

[4] = system: DU145 (human prostate cancer cell line); test: CellCountzEZ Cell Survival Assay; type: cell-based; conditions: for ratio of inhibition: dose not restated in b354 (10 μg)
Method: as §1

[5] = molecular target: T1, surface filamin A on SKOV3 cell line (ovarian cancer) (Homo sapiens, UniProt P21333); test: B411 surface staining by flow cytometry; type: binding; conditions: 2 μg primary antibody, 1 hour on ice
T1 construct: endogenous in cells; host or cells: SKOV3
T1 sequence (P21333 whole entry): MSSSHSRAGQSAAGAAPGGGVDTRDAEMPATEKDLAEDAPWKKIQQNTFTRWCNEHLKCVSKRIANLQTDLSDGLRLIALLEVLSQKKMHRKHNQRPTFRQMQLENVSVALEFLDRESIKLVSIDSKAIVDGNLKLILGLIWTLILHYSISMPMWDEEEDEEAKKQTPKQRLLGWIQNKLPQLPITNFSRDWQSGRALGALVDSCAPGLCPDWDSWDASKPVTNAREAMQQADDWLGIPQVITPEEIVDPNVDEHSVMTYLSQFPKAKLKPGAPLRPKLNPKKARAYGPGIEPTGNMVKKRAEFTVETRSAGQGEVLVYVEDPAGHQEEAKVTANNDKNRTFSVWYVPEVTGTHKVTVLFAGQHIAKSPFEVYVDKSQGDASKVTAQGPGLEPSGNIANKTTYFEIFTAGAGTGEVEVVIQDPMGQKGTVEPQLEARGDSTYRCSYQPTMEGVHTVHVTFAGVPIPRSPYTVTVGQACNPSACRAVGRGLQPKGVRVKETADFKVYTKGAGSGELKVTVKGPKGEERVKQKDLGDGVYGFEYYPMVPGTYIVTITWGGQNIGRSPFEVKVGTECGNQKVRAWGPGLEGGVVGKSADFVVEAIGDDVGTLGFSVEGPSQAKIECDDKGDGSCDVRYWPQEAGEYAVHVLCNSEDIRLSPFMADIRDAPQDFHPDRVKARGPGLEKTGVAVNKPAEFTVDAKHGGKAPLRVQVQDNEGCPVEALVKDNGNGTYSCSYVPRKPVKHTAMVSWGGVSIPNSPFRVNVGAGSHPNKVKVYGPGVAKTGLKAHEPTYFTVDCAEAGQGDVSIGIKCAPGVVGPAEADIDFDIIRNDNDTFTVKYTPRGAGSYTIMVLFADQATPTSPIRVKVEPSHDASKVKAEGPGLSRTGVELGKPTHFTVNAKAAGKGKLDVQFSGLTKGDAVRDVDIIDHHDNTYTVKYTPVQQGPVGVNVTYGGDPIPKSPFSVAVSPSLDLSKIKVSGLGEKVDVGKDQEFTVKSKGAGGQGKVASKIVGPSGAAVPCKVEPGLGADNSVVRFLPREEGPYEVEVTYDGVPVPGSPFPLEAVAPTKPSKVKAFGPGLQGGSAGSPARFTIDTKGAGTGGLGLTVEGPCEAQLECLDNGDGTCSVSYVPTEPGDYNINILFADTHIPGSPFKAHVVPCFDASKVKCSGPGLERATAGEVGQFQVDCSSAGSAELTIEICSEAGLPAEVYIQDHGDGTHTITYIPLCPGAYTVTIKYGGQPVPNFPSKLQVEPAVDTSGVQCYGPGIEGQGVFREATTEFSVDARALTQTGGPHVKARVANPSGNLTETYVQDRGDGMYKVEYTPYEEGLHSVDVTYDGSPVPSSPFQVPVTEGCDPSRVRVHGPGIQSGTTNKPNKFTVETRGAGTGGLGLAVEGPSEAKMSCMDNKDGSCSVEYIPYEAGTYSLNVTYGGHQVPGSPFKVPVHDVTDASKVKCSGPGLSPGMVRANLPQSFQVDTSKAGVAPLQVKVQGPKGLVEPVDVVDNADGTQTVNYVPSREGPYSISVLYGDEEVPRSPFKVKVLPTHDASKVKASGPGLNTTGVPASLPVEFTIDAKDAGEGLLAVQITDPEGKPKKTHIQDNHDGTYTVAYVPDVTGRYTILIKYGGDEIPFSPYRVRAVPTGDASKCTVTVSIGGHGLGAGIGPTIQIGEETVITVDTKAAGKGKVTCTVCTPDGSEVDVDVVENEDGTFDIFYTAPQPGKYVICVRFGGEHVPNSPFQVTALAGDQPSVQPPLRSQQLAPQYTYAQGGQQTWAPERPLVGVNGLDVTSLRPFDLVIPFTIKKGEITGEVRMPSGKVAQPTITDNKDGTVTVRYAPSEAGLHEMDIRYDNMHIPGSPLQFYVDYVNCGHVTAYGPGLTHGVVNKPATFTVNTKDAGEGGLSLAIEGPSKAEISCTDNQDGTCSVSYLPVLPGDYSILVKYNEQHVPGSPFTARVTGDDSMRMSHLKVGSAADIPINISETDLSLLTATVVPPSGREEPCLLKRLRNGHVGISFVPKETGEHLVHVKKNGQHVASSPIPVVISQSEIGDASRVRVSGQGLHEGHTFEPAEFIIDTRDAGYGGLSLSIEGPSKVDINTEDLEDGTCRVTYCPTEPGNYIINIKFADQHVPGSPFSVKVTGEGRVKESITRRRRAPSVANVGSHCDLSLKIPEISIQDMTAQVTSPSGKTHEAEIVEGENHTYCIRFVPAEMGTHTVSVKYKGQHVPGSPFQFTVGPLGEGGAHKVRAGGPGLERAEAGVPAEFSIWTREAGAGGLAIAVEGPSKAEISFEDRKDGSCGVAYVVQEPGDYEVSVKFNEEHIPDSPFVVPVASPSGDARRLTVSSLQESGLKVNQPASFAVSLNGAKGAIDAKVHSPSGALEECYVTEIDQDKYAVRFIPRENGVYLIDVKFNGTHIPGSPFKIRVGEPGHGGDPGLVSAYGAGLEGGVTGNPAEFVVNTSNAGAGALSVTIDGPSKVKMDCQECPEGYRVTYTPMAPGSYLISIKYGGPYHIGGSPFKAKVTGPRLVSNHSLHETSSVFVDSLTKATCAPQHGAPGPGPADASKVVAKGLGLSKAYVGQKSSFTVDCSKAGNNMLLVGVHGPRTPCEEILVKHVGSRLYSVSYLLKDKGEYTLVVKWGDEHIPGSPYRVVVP
Method: (§2) B411 surface staining on several different cell types was conducted. Cells were plated at a concentration of 0.5-1.0 million cells per well, and incubated overnight. Cells were then lifted from the wells, washed, and resuspended in flow cytometry media with 2 μg of primary antibody for 1 hour on ice. Cells were washed and incubated with the secondary antibody (5 μg/ml) for 30 minutes on ice. Cells were washed again and analyzed by flow cytometry.

[6] = molecular target: T2, surface filamin A on SKNAS (human neuroblastoma) cell line (Homo sapiens, UniProt P21333); test: B411 surface staining by flow cytometry; type: binding; conditions: 2 μg primary antibody, 1 hour on ice
T2 construct: endogenous in cells; host or cells: SKNAS
T2 sequence (P21333 whole entry): as above
Method: as §2

[7] = molecular target: T3, surface filamin A on HeLa cells (Homo sapiens, UniProt P21333); test: B411 surface staining by flow cytometry; type: binding; conditions: 2 μg primary antibody, 1 hour on ice
T3 construct: endogenous in cells; host or cells: HeLa
T3 sequence (P21333 whole entry): as above
Method: as §2

[8] = molecular target: T4, surface filamin A on SKBR3 (breast adenocarcinoma) cell line (Homo sapiens, UniProt P21333); test: B411 surface staining by flow cytometry; type: binding; conditions: 2 μg primary antibody, 1 hour on ice
T4 construct: endogenous in cells; host or cells: SKBR3
T4 sequence (P21333 whole entry): as above
Method: as §2

[9] = system: SKBR3 cells (breast adenocarcinoma); test: Endocytosis assay (Zenon pHrodo labelled antibody, flow cytometry); type: cell-based, human; conditions: 12 μg/mL labelled antibody; 24 hours, 37° C.
Method: Experiments were conducted to determine if antibody B411 is endocytosed by cells. 250,000 cells/well were plated and incubated overnight at 37° C., 5% CO2. 12 μg/mL of antibodies were labelled with Zenon pHrodo kit (human green) according to the manufacturer's protocol for 5 minutes at room temperature, in the dark. The plated cells were then incubated with the labeled antibodies for 24 hours, at 37° C., 5% CO2. Cells were then lifted by manual scraping, and washed prior to analysis by flow cytometry.

[10] = system: MDA-MB-231 breast cancer cells; test: ORIS cell migration assay with Calcein AM / propidium iodide / Hoechst 33342 staining; type: cell-based, human; conditions: overnight incubation with antibody versus buffer control
Method: Additional cell assays were carried out using the B411 antibody and the breast cancer cell lines MDA-MB-231 and SKBR3. Specifically, the filamin-A antibody B411 was evaluated in the ORIS™ cell migration assay, which used tri-coated 96 well plates (Platypus #CMATR1.101). Cells were seeded at approximately 25,000 or 50,000 cells/well. Cells were incubated overnight at 37° C., CO2, McCoy's in the case of SKBR3 cells, or L-15 containing 10% FBS, without CO2 in the case of MDA-MB-231 cells. Stoppers covering cell growth and migration zones were removed with the ORIS™ stopper tool, growth media was removed, and wells gently washed with 100 microliters of sterile PBS. Stoppers were left in place in reference wells until the staining step to serve as no-migration controls. After washing, a 100 microliter volume of fresh culture media containing the specific treatment was added to each well. The cells were then allowed to incubate overnight. At the end of the incubation period, cells were fluorescently stained as follows: • Carefully remove remaining culture medium from wells and wash with 100 μL of PBS. […] Fluorescence was then measured using a microplate reader with a Detection Mask in place. • Carefully remove Calcein AM and wash with 100 μL of PBS. […] Incubate 5-10 min at room temperature. • Take a fluorescence image (blue, green and red channels) of a representative well(s) using 5× magnification.

Question: For C=C1[C@@H](C)[C@H]2[C@H](Cc3ccccc3)NC(=O)[C@]23OC(=O)/C=C/[C@H](O)CCC[C@@H](C)C/C=C/[C@H]3[C@@H]1O [cytochalasin B, reference compound], which “effect on cell migration” value ([1]; tissue culture (TC) treatment wells, no coating) is on record?
Answer: little effect across treatments with the exception of cytochalasin B

B1: murine antibody: recombinant mouse anti-filamin-A mAb of the disclosure (mouse antibody B186); mouse VL SEQ ID NO:22, VH SEQ ID NO:24 (antibody, listed as Mus sp., V domains shown)
VH: EVKLVESGGGLVQPGGSLKLSCAASGFTFSSYTMSWVRQTPEKRLEWVAYISNGGGSTYYPDTVKGRFTISRDNAKNTLYLQMSSLKSEDTAMYYCASDGLLRPFAYWGQGTLVTVSA
VL: DIVMTQSHKFMSTSVGDRVSITCKASQDVSIDVAWYQQKPGQSPKLLIYSASHRYTGVPDRFTGSGSGTDFTFTISGVQAEDLAVYFCQQHYSTPLTFGAGTKLELK
Question: Which results are given for B1?
Answer: effect on cell motility ([1]; collagen coated wells): no considerable differences; effect on cell migration ([1]; collagen treated wells, 1 μg/mL): did not lead to a reduction in cell migration; effect on cell motility / cell migration ([1]; fibronectin coated wells, 1 μg/mL): decreases in cell motility; effect on cell motility / cell migration ([1]; fibronectin coated wells, 1 μg/mL, listed as murine mAbs): less of a reduction; cell motility (relative fluorescence units in detection zone) ([1]; fibronectin coated wells, antibody 1 μg/mL, overnight incubation): 191.34 RFU; immunofluorescence staining pattern ([2]; MDA-MB-231 cells, primary antibody 1.25 mcg/ml): punctate staining pattern; immunofluorescence staining pattern ([2]; first method: methanol fixative, 0.2% Triton permeabilization): reproduced the punctuate staining pattern

B2: B411: anti-filamin-A human chimeric antibody, light chain variable region SEQ ID NO:2, heavy chain variable region SEQ ID NO:7 (antibody, V domains shown)
VH: EVKLVESGGGLVQPGGSLKLSCAASGFTFSSYTMSWVRQTPEKRLEWVAYISNGGGSTYYPDTVKGRFTISRDNAKNTLYLQMSSLKSEDTAMYYCASDGIIRPFAYWGQGTLVTVSA
VL: DIVMTQSHKFMSTSVGDRVSITCKASQDVSLDVAWYQQKPGQSPKLLIYSASHRYTGVPDRFTGSGSGTDFTFTISGVQAEDLAVYFCQQHYSTPLTFGAGTKLELK
modifications: VH domain of mAbs B407 and B411; human chimeric mAb VL domain of mAbs B408, B409, B410, and B411
Question: Which “effect on cell proliferation” value ([3]; 1 μg dose, 24 h or 48 h) does the source give for B2 here?
Answer: did not have an effect

Question: And the “inhibition of cell proliferation” value ([3]; 10 μg)?
Answer: Inhibition of HEK293 cell proliferation was also observed

Question: And the ratio of inhibition ([3]; 24 h)?
Answer: 9.3%

Question: What about the ratio of inhibition ([3]; 48 h) of the same molecule?
Answer: 17.7%

Question: What about the “inhibition effect on proliferation versus untreated group” value ([4]; 1 μg dosing, 24 h) of the same molecule?
Answer: significant inhibition effect on proliferation

Question: What about the “inhibition effect on proliferation versus untreated group” value ([4]; 1 μg dosing, 48 h) of the same molecule?
Answer: no statistically significant effect

Question: What about the “cell proliferation (OD412 with reference to OD650)” value ([4]; 1 μg or 10 μg, 24 or 48 hours, overall statement) of the same molecule?
Answer: inhibits DU145 (cancer) cell proliferation

Question: What about the “inhibition effect on proliferation versus untreated group” value ([4]; 10 μg dosing, 24 h and 48 h) of the same molecule?
Answer: significant inhibition effects on proliferation

Question: What about the ratio of inhibition ([4]; 24 h) of the same molecule?
Answer: 7.8%

Question: And the ratio of inhibition ([4]; 48 h)?
Answer: 14.6%

Question: And the surface staining [5]?
Answer: Highly Positive staining

Question: What about the surface staining [6] of the same molecule?
Answer: Highly Positive staining

Question: What about the surface staining [7] of the same molecule?
Answer: Highly Positive staining

Question: And the surface staining [8]?
Answer: some positive staining; also recorded: weaker compared to the other cell lines tested

Question: What about the endocytosis of antibody [9] of the same molecule?
Answer: detected

Question: What about the “number of cells positive for endocytosis, SKBR3 compared to HEK (non-cancer) cells” value [9] of the same molecule?
Answer: More SKBR3 cells were positive for B411 than HEK cells

Question: What about the “Calcein AM staining (metabolic activity)” value [10] of the same molecule?
Answer: more variability in Calcein AM staining

Question: And the “Hoechst 33342 staining (apoptosis-like phenotype)” value [10]?
Answer: increase in Hoechst 33342 staining
